Target: mouse B6 MHC class I antigens (H-2b: D^b or K^b) on the surface of RMA-S cells (mouse)
Test: binding of 9mer peptides within p117-139 to mouse B6 (H-2b) class I antigens; RMA-S assay as for Table XLVII

Row | Binder | Binding Affinity to Mouse MHC Class I
1 | PSQASSGQA [WT1 peptide P117-125 (…)] | 2%
2 | SSGQARMFP [WT1 peptide P121-129 (…)] | 1%
3 | MFPNAPYLP [WT1 peptide P127-135 (…)] | 2%
4 | SQASSGQAR [WT1 peptide P118-126 (…)] | 2%
5 | ASSGQARMF [WT1 peptide P120-128 (…)] | 1%
6 | FPNAPYLPS [WT1 peptide P128-136 (…)] | 1%
7 | QASSGQARM [WT1 peptide P119-127 (…)] | 2%
8 | QARMFPNAP [WT1 peptide P124-132 (…)] | 1%
9 | ARMFPNAPY [WT1 peptide P125-133 (…)] | 1%
10 | PNAPYLPSC [WT1 peptide P129-137 (…)] | 1%
11 | APYLPSCLE [WT1 peptide P131-139 (…)] | 1%
12 | NAPYLPSCL [WT1 peptide P130-138 (…)] | 79%

Target: mouse B6 MHC class I antigens (H-2b: D^b or K^b) on the surface of RMA-S cells (mouse)
Test: RMA-S class I stabilisation, peptide 25 ug/ml, flow cytometry with FITC anti-D^b or anti-K^b, MFI against medium alone

Row | Binder | Binding Affinity to Mouse MHC Class I (% increase of class I on RMA-S cells)
13 | ALLPAVPSL [WT1 peptide p10-18 human (…)] | 2.2%
14 | YSSDNLYQM [WT1 peptide p221-229 (…)] | 0.8%
15 | NQMNLGATL [WT1 peptide p239-247 (…)] | 1%
16 | NLYQMTSQL [WT1 peptide p225-233 (…)] | 5.8%
17 | SCLESQPAI [WT1 peptide p136-144 human (…)] | 52%
18 | GCNKRYFKL [WT1 peptide p329-337 (…)] | 1.2%
19 | CMTWNQMNL [WT1 peptide p235-243 (…)] | 33.6%
20 | QMTSQLECM [WT1 peptide p228-236 (…)] | 1.2%

Reference: patent US20040018204A1
